Results on six compounds are retold here after paper PMC12025097, “Elucidation of Expression Patterns and Functional Properties of Archaerhodopsin Derived from Halorubrum sp. Ejinoor” (Biology, 2025).

One data set has as its target T1, BR (Halobacterium salinarum, UniProt P02945).
T1 construct: gene bop; native BR from Hs by sucrose density gradient; text also mentions Ni-NTA purification and a vector-cloned BR from E. coli
T1 sequence (P02945 14-262): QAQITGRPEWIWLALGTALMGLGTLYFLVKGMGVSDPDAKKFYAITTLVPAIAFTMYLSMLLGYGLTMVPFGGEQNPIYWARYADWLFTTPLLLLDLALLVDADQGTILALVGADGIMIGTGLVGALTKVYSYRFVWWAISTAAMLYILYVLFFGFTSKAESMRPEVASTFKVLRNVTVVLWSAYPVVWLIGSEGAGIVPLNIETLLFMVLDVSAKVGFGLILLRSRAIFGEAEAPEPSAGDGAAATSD
Kind of data set: HPLC of chromophore extracted from purified protein. In kind it is binding. The conditions noted are these: covalent; Schiff base to Lys216; dark- and light-adapted; 0.05% DDM, 10 mM HEPES, pH 7.5.

For the next data set, the target named is Asp95 (UniProt position 95, YARYADWLFTT). Nature of the data set: UV-vis. The following applies: not stated (six-component buffer said to keep ionic strength constant); citric acid/MES/HEPES/MOPS/CHES/CAPS, each 10 mM; retinal-bound, detergent-solubilised trimer; steady-state titration; light or dark adaptation state not stated.
In a further data set the target is Asp85 (UniProt position 98, WARYADWLFTT). The conditions noted are these: cited from earlier work.
Data set [1] concerns the target Bacteriorhodopsin (Halobacterium salinarum) (UniProt P02945). Kind of data set: SEC; Superdex 200 10/300 GL, 25 °C, 10 mM HEPES pH 7.5, 100 mM NaCl, 0.05% DDM, 0.5 mL/min, detection at 280 and 560 nm; apparent mass from calibration standards, trimer deduced after allowing for bound DDM. For orientation: Size exclusion chromatography separates by hydrodynamic size, large species first.

Data set [2] addresses Halorubrum sp. Ejinoor Archaerhodopsin (Halorubrum sp. Ejinoor). Described as above.

Regarding `CC1=C(/C=C/C(C)=C/C=C/C(C)=C\C=O)C(C)(C)CCC1` [13-cis retinal], the “HPLC of chromophore extracted from purified protein” value at BR was “both HeAR and BR contain only two retinal chromophore isomers: All-trans and 13-cis”.

As to `CC1=C(/C=C/C(C)=C/C=C/C(C)=C/C=O)C(C)(C)CCC1` [All-trans retinal], the “HPLC of chromophore extracted from purified protein” value on BR was “both HeAR and BR contain only two retinal chromophore isomers: All-trans and 13-cis”.

Turning to “Archaerhodopsin HeAR (Halorubrum sp. Ejinoor)”, the pKa in the data set with Asp95 stood at 3.5 ± 0.1.

Consider “Bacteriorhodopsin (BR) (Halobacterium salinarum)”, for which, in the data set with Asp85, the pKa is recorded as roughly 2.6.

Consider “Bacteriorhodopsin (from UniProt P02945 14-262) (natural protein)”, for which the stoichiometry N in data set [1] was determined as 3.

As for “Halorubrum sp. Ejinoor Archaerhodopsin (natural protein)”, in data set [2], the stoichiometry N was determined as 3.

In general, pKa refers to the negative logarithm of the acid dissociation constant. The term stoichiometry N denotes a count of units in the complex or per binding partner.
